# Assay results reported in patent US20030236197A1.
# Target: Aβ1-40 peptide (monomeric start material of the nucleation assay)
# Assay: cell-based or functional assay
Nucleation assay Δ lag at 1.25 µM compound (ratio of lag time to control),Nucleation assay Δ lag at 2.5 µM compound (ratio of lag time to control),Nucleation assay Δ lag at 5 µM compound (ratio of lag time to control),"Nucleation assay Δ lag at 0.6 µM compound (row marked #: measured at 2.5, 1.25 and 0.6 µM) (ratio of lag time to control)","Nucleation assay Δ lag at 1.25 µM compound (row marked #: measured at 2.5, 1.25 and 0.6 µM) (ratio of lag time to control)","Nucleation assay Δ lag at 2.5 µM compound (row marked #: measured at 2.5, 1.25 and 0.6 µM) (ratio of lag time to control)",Substance
3,> 5,> 5,,,,PPI-969: TFA • N-ethyl-(Gaffvl)-NH2 (peptide)
,,,2,> 3,2,PPI-1013: TFA • H-(Glvffl)-NH2 (peptide)
